In PMC8989531 (Nucleic Acids Research, 2022):

T1: RecD2-His (Bacillus subtilis RecD2 helicase with C-terminal His tag) (B. subtilis, UniProt O34481 1-798)
T1 sequence (looked up): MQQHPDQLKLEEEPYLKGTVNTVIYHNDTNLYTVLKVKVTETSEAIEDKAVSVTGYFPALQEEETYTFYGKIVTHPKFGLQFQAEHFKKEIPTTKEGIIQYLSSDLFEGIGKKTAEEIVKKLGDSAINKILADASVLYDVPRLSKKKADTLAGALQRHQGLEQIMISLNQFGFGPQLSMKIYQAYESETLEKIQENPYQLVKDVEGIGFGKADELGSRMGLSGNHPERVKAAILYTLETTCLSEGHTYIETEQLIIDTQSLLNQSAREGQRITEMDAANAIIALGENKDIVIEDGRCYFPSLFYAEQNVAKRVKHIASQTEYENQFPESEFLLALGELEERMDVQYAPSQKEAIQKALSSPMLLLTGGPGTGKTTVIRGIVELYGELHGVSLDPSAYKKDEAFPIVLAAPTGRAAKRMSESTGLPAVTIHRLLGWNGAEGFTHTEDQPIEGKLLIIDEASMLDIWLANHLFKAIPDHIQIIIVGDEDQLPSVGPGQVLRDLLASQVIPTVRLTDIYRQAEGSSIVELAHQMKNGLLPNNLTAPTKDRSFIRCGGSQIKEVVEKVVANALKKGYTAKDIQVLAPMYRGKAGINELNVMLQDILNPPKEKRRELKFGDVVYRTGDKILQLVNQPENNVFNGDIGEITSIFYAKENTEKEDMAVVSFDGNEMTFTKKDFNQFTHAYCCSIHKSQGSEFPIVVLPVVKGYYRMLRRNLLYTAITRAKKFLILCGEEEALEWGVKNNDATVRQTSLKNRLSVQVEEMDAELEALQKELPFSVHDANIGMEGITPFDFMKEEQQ

B1: RecA (Bacillus subtilis recombinase) (natural protein, B. subtilis, UniProt P16971 1-348, looked up)
chain: MSDRQAALDMALKQIEKQFGKGSIMKLGEKTDTRISTVPSGSLALDTALGIGGYPRGRIIEVYGPESSGKTTVALHAIAEVQQQGGQAAFIDAEHALDPVYAQKLGVNIEELLLSQPDTGEQALEIAEALVRSGAVDIVVVDSVAALVPKAEIEGDMGDSHVGLQARLMSQALRKLSGAINKSKTIAIFINQIREKVGVMFGNPETTPGGRALKFYSSVRLEVRRAEQLKQGNDVMGNKTKIKVVKNKVAPPFRTAEVDIMYGEGISKEGEIIDLGTELDIVQKSGSWYSYEEERLGQGRENAKQFLKENKDIMLMIQEQIREHYGLDNNGVVQQQAEETQEELEFEE
B2: SsbA (Bacillus subtilis single-stranded DNA binding protein) (natural protein, B. subtilis, UniProt P37455 1-172, looked up)
chain: MLNRVVLVGRLTKDPELRYTPNGAAVATFTLAVNRTFTNQSGEREADFINCVTWRRQAENVANFLKKGSLAGVDGRLQTRNYENQQGQRVFVTEVQAESVQFLEPKNGGGSGSGGYNEGNSGGGQYFGGGQNDNPFGGNQNNQRRNQGNSFNDDPFANDGKPIDISDDDLPF

Biological target: T1, RecD2-His (Bacillus subtilis RecD2 …)
Test: far-Western, overlay or dot blot

Row | Binder | binding result
1 | B1 | binds
2 | B2 | binds
